Molecular target: SARS-CoV-2 S on pseudotyped lentivirus (pCMV-SARS2deltaC-gp41) (SARS-CoV-2) (UniProt P0DTC2)
Assay: cell-based or functional assay

Work on Nb21.t (VHH) yielded an IC50 of pseudovirus neutralization of 0.244 nM.
